Assay results published in paper PMC9413444 (ACS Nano, 2022).

System: intracranial glioblastoma GL261 in BL/6 mice
Conditions: GL261 tumor-bearing BL/6 mice; IV; 2 h post-injection (Figure 2B)

poly(β-L-malic acid)-trileucine polymer [P/LLL(40%)]
increase of fluorescence in tumor tissue from dose 0.25X to dose 1.0X: increases proportionally with the dose administered
